# T1: VvLBD13 (Vitis vinifera cv. Shine Muscat, UniProt D7SJL6 27-229)
# T1 sequence: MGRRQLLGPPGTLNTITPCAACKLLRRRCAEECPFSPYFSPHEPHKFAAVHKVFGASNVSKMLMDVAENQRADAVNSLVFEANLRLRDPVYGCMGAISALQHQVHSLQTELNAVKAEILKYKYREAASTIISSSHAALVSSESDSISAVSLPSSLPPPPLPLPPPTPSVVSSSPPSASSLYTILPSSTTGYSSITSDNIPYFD
# B1: VvXTH10 promoter probe (dsDNA)
# DNA 1: TCGAGTGTTGCGGCTTTGAAAAATA
# DNA 2: TATTTTTCAAAGCCGCAACACTCGA
# B2: VvEXPLA1 promoter probe (dsDNA)
# DNA 1: AATAGAGAAGCCCACACGTGAGCAA
# DNA 2: TTGCTCACGTGTGGGCTTCTCTATT
# Molecular target: T1, VvLBD13
# Assay: EMSA; with unlabeled cold probe competition; EMSA kit (Thermo 20148), 25 C, 30 min; buffer, salt and pH not stated
# Conditions: protein: recombinant; tags: His (pET-32a(+)); chain copies: 2; label: 5' biotin; blunt
row,Binder,binding result
1,B1,binds
2,B2,binds
